Legend:
[1] = tested on: IgE from mite-allergic or normal human sera; test: ELISA, binding of IgE from human sera to coated Der f 1 proteins or mite extracts, detected with FcεR1α-biotin
[2] = tested on: IgE from pooled mite-allergic human sera; test: Monoclonal Capture ELISA (Example 8B, Table 7); type: binding
Method: (§1) Assays were carried out as follows. A microtiter plate as described in Example 5 was coated overnight at 4° C. with 100 ng/well of anti-Der f 1 protein monoclonal antibody 6A8, denoted herein as anti-Der f 1 MAb 6A8, provided by Dr. Martin Chapman. The plate was washed in the manner described above. The following proteins were then added to wells, having been diluted in Assay Buffer in a 2-fold dilution series, from 0.75 to 50 ng/well: Heska native Derf1, P. pastoris-expressed PDerf1303b, and E. coli-expressed PDerf1303c. After incubation for 1 hour at room temperature, plates were washed as described in Example 5. Then 100 μl per well of a 1:1000 dilution in Assay Buffer of biotinylated anti-Der f 1 monoclonal antibody 4C1, also denoted anti-Der f 1 MAb 4C1, provided by Dr. Martin Chapman, was added for 1 hour at room temperature. Plates were washed, streptavidin-HRP conjugate was added, and plates were developed as described in Example 5.
B. The Der f 1 proteins described in Example 8B were reacted as described in Example 6 with a pool of serum samples collected from 16 mite-allergic human patients.

[3] = tested on: anti-Der f 1 MAb 6A8 (capture) and anti-Der f 1 MAb 4C1 (detection); test: Monoclonal Capture ELISA; type: binding
Method: as §1

[4] = Cysteine protease activity, cleavage of quenched fluorogenic substrate; type: biochemical; settings: for Emission (w/o E-64): 50 μM substrate, 2 hours, excitation 380 nm, emission 460 nm; for Emission (w/E-64): pre-incubated 30 minutes with E-64 1 μg/ml
Method: Native Der f 1 is believed to be a cysteine protease, based on homology to papain; see, for example, Chua et al, 1992, J Exp Med 167, 175-182. The Der f 1 protein secreted as a mature form by recombinant cell P. pastoris HCY215 (i.e., P. pastoris strain X33 transformed with plasmid pBC128 containing nucleic acid molecule nDerf1909b (coding strand of SEQ ID NO:28) which encodes the pro-form of Der f 1 (amino acid sequence SEQ ID NO:29)) was tested for cysteine protease activity in the following manner. Three concentrations of protein were tested for their abilities to cleave an artificial substrate in the presence or absence of a cysteine protease inhibitor. Specifically, three pairs of samples containing 0.56 μg, 1.1 μg, or 5.6 μg of P. pastoris-expressed Der f 1 protein, respectively, were incubated for 30 minutes at room temperature in 20 μl of 50 mM Tris-HCl, pH 8. One member of each pair also contained the irreversible cysteine protease inhibitor E-64 at a concentration of 1 μg/ml. After the pre-incubation, 100 μl of 50 μM quenched fluorogenic substrate z-Val-Leu-Arg-AMC (available from Enzyme Systems Products, Livermore, Calif.) was added to all six samples, and the samples were incubated for 2 hours at room temperature. Fluorescence was measured using a Perkin Elmer Luminescence Spectrometer (model #LS50B) at an excitation wavelength of 380nm and an emission wavelength of 460 nm.

B1: PDerf1303b: Recombinant Der f 1 expressed by P. pastoris HCY215 from nDerf1909b (pro-form, SEQ ID NO:29); actually secreted as mature form (protein, listed as Dermatophagoides farinae)
chain: RPASIKTFEEFKKAFNKNYATVEEEEVARKNFLESLKYVEANKGAINHLSDLSLDEFKNRYLMSAEAFEQLKTQFDLNAETSACRINSVNVPSELDLRSLRTVTPIRMQGGCGSCWAFSGVAATESAYLAYRNTSLDLSEQELVDCASQHGCHGDTIPRGIEYIQQNGVVEERSYPYVAREQRCRRPNSQHYGISNYCQIYPPDVKQIREALTQTHTAIAVIIGIKDLRAFQHYDGRTIIQHDNGYQPNYHAVNIVGYGSTQGDDYWIVRNSWDTTWGDSGYGYFQAGNNLMMIEQYPYVVIM
- OD, bound IgE ([1]; Assay Number 1, serum human 1916): 11 OD multiplied by 1000
- OD, bound IgE ([1]; Assay Number 1, serum human3848): 1192 OD multiplied by 1000
- OD, bound IgE ([1]; Assay Number 1, serum human 3958): 2244 OD multiplied by 1000
- OD, bound IgE ([1]; Assay Number 1, serum human 3960): 646 OD multiplied by 1000
- OD, bound IgE ([1]; Assay Number 1, serum human 3961): 433 OD multiplied by 1000
- OD, bound IgE ([1]; Assay Number 1, serum human 3987): 1377 OD multiplied by 1000
- OD, bound IgE ([1]; Assay Number 1, serum human 4289): 182 OD multiplied by 1000
- OD, bound IgE ([1]; Assay Number 1, serum human 4467): 694 OD multiplied by 1000
- OD, bound IgE ([1]; Assay Number 1, serum human 5207): 2153 OD multiplied by 1000
- OD, bound IgE ([1]; Assay Number 1, serum human pool): 1547 OD multiplied by 1000
- OD, bound IgE ([1]; Assay Number 2, serum Heska human B): 2 OD multiplied by 1000
- OD, bound IgE ([1]; Assay Number 2, serum Heska human C): 4 OD multiplied by 1000
- OD, bound IgE ([1]; Assay Number 2, serum Heska human D): 0 OD multiplied by 1000
- OD, bound IgE ([1]; Assay Number 2, serum Heska human E): 1 OD multiplied by 1000
- OD, bound IgE ([1]; Assay Number 2, serum Heska human F): 0 OD multiplied by 1000
- OD, bound IgE ([1]; Assay Number 2, serum Heska human G): 0 OD multiplied by 1000
- OD, bound IgE ([1]; Assay Number 2, serum Heska human H): 0 OD multiplied by 1000
- OD, bound IgE ([1]; Assay Number 2, serum Heska human I): 4 OD multiplied by 1000
- OD, bound IgE ([1]; Assay Number 2, serum Heska human J): 0 OD multiplied by 1000
- OD, bound IgE ([1]; Assay Number 2, serum Heska human K): 0 OD multiplied by 1000
- OD, bound IgE ([1]; Assay Number 2, serum Heska human L): 0 OD multiplied by 1000
- OD, bound IgE ([1]; Assay Number 2, serum Heska human M): 0 OD multiplied by 1000
- OD, bound IgE ([1]; Assay Number 2, serum Heska human N): 370 OD multiplied by 1000
- OD, bound IgE ([1]; Assay Number 2, serum Heska human O): 0 OD multiplied by 1000
- OD, bound IgE ([1]; Assay Number 2, serum Heska human P): 0 OD multiplied by 1000
- OD, bound IgE ([1]; Assay Number 2, serum Heska human Q): 0 OD multiplied by 1000
- OD, bound IgE ([1]; Assay Number 2, serum Heska human R): 0 OD multiplied by 1000
- OD, bound IgE ([1]; Assay Number 2, serum human 1916): 15 OD multiplied by 1000
- OD, bound IgE ([1]; Assay Number 2, serum human 3848): 904 OD multiplied by 1000
- OD, bound IgE ([1]; Assay Number 2, serum human 3958): 2369 OD multiplied by 1000
- OD, bound IgE ([1]; Assay Number 2, serum human 3960): 1046 OD multiplied by 1000
- OD, bound IgE ([1]; Assay Number 2, serum human 3961): 709 OD multiplied by 1000
- OD, bound IgE ([1]; Assay Number 2, serum human 3987): 2457 OD multiplied by 1000
- OD, bound IgE ([1]; Assay Number 2, serum human 4289): 160 OD multiplied by 1000
- OD, bound IgE ([1]; Assay Number 2, serum human 4467): 660 OD multiplied by 1000
- OD, bound IgE ([1]; Assay Number 2, serum human 5207): 1304 OD multiplied by 1000
- OD, bound IgE ([1]; Assay Number 2, serum human pool): 1551 OD multiplied by 1000
- reactivity: share of human serum samples reactive to native Der f 1 proteins that are also reactive to the recombinant protein ([1]; Table 1, 9 human samples (8 sera and pool), OD numbers greater than 100 positive): 100%
- reactivity: share of human serum samples reactive to native Der f 1 proteins that are also reactive to the recombinant protein ([1]; Table 2, 10 human serum samples): 100%
- OD, bound IgE ([1]; Table 3, sera 429, PDerf1303b preparation number A166-26, PDerf1223b preparation 1000-7): 104 OD multiplied by 1000
- OD, bound IgE ([1]; Table 3, sera 1916, PDerf1303b preparation number A166-26, PDerf1223b preparation 1000-7): 0 OD multiplied by 1000
- OD, bound IgE ([1]; Table 3, sera 3848, PDerf1303b preparation number A166-26, PDerf1223b preparation 1000-7): 457 OD multiplied by 1000
- OD, bound IgE ([1]; Table 3, sera 3958, PDerf1303b preparation number A166-26, PDerf1223b preparation 1000-7): 2616 OD multiplied by 1000
- OD, bound IgE ([1]; Table 3, sera 3960, PDerf1303b preparation number A166-26, PDerf1223b preparation 1000-7): 1420 OD multiplied by 1000
- OD, bound IgE ([1]; Table 3, sera 3961, PDerf1303b preparation number A166-26, PDerf1223b preparation 1000-7): 744 OD multiplied by 1000
- OD, bound IgE ([1]; Table 3, sera 3987, PDerf1303b preparation number A166-26, PDerf1223b preparation 1000-7): 2588 OD multiplied by 1000
- OD, bound IgE ([1]; Table 3, sera 4467, PDerf1303b preparation number A166-26, PDerf1223b preparation 1000-7): 780 OD multiplied by 1000
- OD, bound IgE ([1]; Table 3, sera 5207, PDerf1303b preparation number A166-26, PDerf1223b preparation 1000-7): 1887 OD multiplied by 1000
- OD, bound IgE ([1]; Table 3, sera human pool, PDerf1303b preparation number A166-26, PDerf1223b preparation 1000-7): 1226 OD multiplied by 1000
- OD, bound IgE ([1]; Table 6, pool of sera from 16 mite-allergic human patients, 6.2 ng protein per well): 53 OD
- OD, bound IgE ([1]; Table 6, pool of sera from 16 mite-allergic human patients, 12.5 ng protein per well): 178 OD
- OD, bound IgE ([1]; Table 6, pool of sera from 16 mite-allergic human patients, 25 ng protein per well): 240 OD
- OD, bound IgE ([1]; Table 6, pool of sera from 16 mite-allergic human patients, 50 ng protein per well): 293 OD
- OD, bound IgE ([1]; Table 6, pool of sera from 16 mite-allergic human patients, 100 ng protein per well): 354 OD
- OD, bound IgE ([1]; Table 6, pool of sera from 16 mite-allergic human patients, 200 ng protein per well): 484 OD
- OD, Monoclonal Capture ELISA ([2]; 0.39 ng protein per well): 434 OD
- OD, Monoclonal Capture ELISA ([2]; 0.78 ng protein per well): 871 OD
- OD, Monoclonal Capture ELISA ([2]; 1.55 ng protein per well): 1399 OD
- OD, Monoclonal Capture ELISA ([2]; 3.1 ng protein per well): 2103 OD
- OD, Monoclonal Capture ELISA ([2]; 6.25 ng protein per well): 2463 OD
- OD, Monoclonal Capture ELISA ([2]; 12.5 ng protein per well): 2388 OD
- OD, Monoclonal Capture ELISA ([2]; 25 ng protein per well): 2389 OD
- OD, protein captured by MAb 6A8 and detected by MAb 4C1 ([3]; 0.75 ng protein per well): 405 OD
- OD, protein captured by MAb 6A8 and detected by MAb 4C1 ([3]; 1.5 ng protein per well): 916 OD
- OD, protein captured by MAb 6A8 and detected by MAb 4C1 ([3]; 2.5 ng protein per well): 2088 OD
- OD, protein captured by MAb 6A8 and detected by MAb 4C1 ([3]; 3.1 ng protein per well): 1544 OD
- OD, protein captured by MAb 6A8 and detected by MAb 4C1 ([3]; 6.25 ng protein per well): 1961 OD
- OD, protein captured by MAb 6A8 and detected by MAb 4C1 ([3]; 25 ng protein per well): 2156 OD
- OD, protein captured by MAb 6A8 and detected by MAb 4C1 ([3]; 50 ng protein per well): 2148 OD
- Emission (w/o E-64) ([4]; 0.56 micrograms rDer f 1): 0.861
- Emission (w/E-64) ([4]; 0.56 micrograms rDer f 1): 0.302
- Emission (w/o E-64) ([4]; 1.1 micrograms rDer f 1): 1.693
- Emission (w/E-64) ([4]; 1.1 micrograms rDer f 1): 0.765
- Emission (w/o E-64) ([4]; 5.6 micrograms rDer f 1): 9.671
- Emission (w/E-64) ([4]; 5.6 micrograms rDer f 1): 2.369
- cysteine protease activity ([4]; can be inhibited by pre-incubation with E-64): exhibits cysteine protease activity
